Here are results for four substances from US20140010832A1.

The term Kd denotes the constant that tells how readily two partners part at equilibrium. Higher therefore signals a looser complex.

Sequence of Fibronectin (P02751 32-2477): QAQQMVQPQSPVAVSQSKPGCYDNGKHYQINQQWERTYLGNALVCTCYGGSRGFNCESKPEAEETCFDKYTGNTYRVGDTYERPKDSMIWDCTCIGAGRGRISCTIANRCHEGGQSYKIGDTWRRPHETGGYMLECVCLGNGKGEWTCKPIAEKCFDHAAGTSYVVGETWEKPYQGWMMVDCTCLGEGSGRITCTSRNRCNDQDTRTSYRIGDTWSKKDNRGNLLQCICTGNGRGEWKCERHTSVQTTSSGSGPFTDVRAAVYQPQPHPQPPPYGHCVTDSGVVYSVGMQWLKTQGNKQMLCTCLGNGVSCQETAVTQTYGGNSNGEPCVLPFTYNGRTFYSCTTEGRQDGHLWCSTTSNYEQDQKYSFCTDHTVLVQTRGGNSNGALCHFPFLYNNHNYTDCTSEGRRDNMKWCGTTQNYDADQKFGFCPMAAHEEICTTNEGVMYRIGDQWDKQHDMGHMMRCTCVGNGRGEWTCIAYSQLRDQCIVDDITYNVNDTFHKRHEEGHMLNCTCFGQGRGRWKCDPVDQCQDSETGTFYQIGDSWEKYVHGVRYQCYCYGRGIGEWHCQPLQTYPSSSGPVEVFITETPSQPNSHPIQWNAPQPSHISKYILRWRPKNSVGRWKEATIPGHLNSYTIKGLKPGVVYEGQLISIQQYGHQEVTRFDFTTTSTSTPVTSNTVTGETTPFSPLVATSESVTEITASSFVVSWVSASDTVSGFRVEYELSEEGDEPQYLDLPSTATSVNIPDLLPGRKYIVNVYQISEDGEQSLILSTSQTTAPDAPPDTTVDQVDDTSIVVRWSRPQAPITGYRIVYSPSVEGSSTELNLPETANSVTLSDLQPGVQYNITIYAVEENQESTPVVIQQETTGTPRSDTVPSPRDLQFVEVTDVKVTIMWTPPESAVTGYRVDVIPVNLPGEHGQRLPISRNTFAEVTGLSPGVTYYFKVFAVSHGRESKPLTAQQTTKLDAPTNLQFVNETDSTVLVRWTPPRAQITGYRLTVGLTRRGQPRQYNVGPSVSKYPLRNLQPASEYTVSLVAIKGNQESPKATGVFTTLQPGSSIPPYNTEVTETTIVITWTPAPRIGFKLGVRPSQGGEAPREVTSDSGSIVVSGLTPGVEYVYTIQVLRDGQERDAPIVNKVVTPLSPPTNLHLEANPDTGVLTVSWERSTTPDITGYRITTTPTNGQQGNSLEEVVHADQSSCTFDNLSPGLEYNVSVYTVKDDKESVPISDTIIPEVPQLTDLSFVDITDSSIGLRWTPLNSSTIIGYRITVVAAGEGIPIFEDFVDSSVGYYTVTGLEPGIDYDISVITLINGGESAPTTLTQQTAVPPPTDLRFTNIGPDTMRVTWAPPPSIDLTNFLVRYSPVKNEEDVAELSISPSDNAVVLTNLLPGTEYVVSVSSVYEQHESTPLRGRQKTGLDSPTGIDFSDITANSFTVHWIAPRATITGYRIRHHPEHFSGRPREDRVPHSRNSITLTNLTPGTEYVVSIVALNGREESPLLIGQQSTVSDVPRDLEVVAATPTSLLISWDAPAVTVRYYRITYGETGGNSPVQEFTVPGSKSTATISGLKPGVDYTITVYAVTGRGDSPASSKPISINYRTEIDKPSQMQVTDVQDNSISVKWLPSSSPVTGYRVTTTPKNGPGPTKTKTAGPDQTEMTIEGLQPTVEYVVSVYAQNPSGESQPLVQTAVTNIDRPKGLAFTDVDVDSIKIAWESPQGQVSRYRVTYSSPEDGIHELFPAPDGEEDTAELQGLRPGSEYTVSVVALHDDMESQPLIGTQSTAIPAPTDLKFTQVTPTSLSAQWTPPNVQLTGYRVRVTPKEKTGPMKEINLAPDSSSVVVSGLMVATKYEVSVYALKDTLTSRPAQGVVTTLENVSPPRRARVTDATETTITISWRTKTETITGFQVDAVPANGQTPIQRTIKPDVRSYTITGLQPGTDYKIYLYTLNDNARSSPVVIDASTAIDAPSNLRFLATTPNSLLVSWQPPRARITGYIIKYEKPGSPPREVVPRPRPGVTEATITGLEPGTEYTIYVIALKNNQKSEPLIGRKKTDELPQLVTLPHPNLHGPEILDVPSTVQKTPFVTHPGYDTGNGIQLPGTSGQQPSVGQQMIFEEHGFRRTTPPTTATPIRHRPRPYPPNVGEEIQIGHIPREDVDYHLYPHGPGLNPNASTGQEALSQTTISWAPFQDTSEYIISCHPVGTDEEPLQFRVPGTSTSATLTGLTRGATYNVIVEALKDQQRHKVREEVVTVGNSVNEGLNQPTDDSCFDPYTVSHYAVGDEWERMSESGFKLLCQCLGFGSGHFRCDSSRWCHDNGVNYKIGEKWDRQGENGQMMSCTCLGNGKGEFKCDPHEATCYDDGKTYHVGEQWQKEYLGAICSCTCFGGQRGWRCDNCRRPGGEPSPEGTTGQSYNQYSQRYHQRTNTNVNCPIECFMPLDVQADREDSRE
Sequence of human VEGF-A121-PlGF2123-144 (P15692 other isoform, or with tags, fused parts or gaps): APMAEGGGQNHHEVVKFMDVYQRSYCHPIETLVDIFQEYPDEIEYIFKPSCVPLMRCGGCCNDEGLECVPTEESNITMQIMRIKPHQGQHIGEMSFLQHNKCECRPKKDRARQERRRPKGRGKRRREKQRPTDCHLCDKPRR
Sequence of VEGF-A165 (P15692 other isoform, or with tags, fused parts or gaps limits assumed): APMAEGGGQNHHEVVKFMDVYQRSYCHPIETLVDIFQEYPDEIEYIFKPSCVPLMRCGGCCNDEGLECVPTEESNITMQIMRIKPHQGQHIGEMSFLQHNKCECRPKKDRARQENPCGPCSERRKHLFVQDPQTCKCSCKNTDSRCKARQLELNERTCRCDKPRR
Sequence of human PDGF-BB (P01127 82-190 limits assumed): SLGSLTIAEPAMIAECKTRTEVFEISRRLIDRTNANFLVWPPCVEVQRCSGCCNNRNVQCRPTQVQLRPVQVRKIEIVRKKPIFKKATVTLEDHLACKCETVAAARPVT

The target of the first test is Osteopontin. The experiment in a line: ELISA; cytokine coated, ECM protein 0.02 to 320 nM, KD by non-linear fit. On the technique in general: In an ELISA, binding on a coated surface is turned into a signal by an enzyme label.
Sequence of Osteopontin (P10451 17-314): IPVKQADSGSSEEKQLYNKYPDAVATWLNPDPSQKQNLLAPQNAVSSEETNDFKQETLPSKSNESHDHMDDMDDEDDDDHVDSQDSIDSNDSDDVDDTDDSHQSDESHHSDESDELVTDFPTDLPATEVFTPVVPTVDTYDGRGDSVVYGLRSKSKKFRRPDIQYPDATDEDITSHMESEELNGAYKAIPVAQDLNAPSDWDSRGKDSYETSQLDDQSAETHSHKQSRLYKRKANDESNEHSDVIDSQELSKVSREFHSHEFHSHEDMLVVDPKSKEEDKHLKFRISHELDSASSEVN
PlGF2 (ligand) showed a Kd of 13.1 nM.

The substance “VEGF-A165 (from UniProt P15692 27-191) (ligand)” had a Kd of 71 nM.

As to “human PDGF-BB (from UniProt P01127 82-190) (ligand)”, the Kd worked out at 20.3 nM.

“human VEGF-A121-PlGF2123-144 (from UniProt P15692 207-395) (ligand)” had a Kd of 26.4 nM.

For another test, the target named is Vitronectin. The description is as above.
Sequence of Vitronectin (P04004 20-478): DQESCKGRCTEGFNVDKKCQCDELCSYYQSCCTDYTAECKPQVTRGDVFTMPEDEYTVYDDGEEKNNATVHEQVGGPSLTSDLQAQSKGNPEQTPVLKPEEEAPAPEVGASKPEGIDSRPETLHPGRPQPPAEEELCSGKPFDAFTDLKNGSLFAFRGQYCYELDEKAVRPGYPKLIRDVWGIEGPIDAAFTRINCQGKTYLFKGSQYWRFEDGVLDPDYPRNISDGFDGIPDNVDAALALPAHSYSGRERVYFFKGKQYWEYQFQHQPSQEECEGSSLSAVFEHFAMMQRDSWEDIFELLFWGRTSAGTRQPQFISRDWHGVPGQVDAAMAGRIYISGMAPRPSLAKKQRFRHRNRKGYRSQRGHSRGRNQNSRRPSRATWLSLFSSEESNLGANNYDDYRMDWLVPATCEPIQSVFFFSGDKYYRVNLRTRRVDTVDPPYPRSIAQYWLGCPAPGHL
For the substance PlGF2 (ligand), the Kd came out at 2 nM.

Regarding “VEGF-A165 (from UniProt P15692 27-191) (ligand)”, the Kd was found to be 70.9 nM.

In the case of “human PDGF-BB (from UniProt P01127 82-190) (ligand)”, the Kd was determined as 10.5 nM.

Substance “human VEGF-A121-PlGF2123-144 (from UniProt P15692 207-395) (ligand)” showed a Kd of 2.8 nM. Against the preceding substance, the Kd is about 3.8-fold lower.

Another test concerns the target Fibrinogen. Described as above.
Turning to PlGF2 (ligand), the Kd was 4.5 nM.

Substance “VEGF-A165 (from UniProt P15692 27-191) (ligand)” gave a Kd of 302 nM.

Substance “human PDGF-BB (from UniProt P01127 82-190) (ligand)” had a Kd of 250 nM. This Kd and that of the substance before are within 1.5-fold of each other.

Consider “human VEGF-A121-PlGF2123-144 (from UniProt P15692 207-395) (ligand)”, for which the Kd was 5.8 nM.

The next test has as its target Fibronectin. The description is as above.
Consider PlGF2 (ligand), for which the Kd amounted to 7.2 nM.

Substance “VEGF-A165 (from UniProt P15692 27-191) (ligand)” showed a Kd of 97.2 nM.

Regarding “human PDGF-BB (from UniProt P01127 82-190) (ligand)”, the Kd stood at 11.6 nM.

In turn, “human VEGF-A121-PlGF2123-144 (from UniProt P15692 207-395) (ligand)” had a Kd of 11.2 nM.

In a further test the target is Tenascin C. Described as above.
Consider PlGF2 (ligand), for which the dissociation constant Kd amounted to 10.1 nM.

As to “VEGF-A165 (from UniProt P15692 27-191) (ligand)”, the dissociation constant Kd amounted to 115 nM.

In turn, “human PDGF-BB (from UniProt P01127 82-190) (ligand)” yielded a Kd of 19 nM.

“human VEGF-A121-PlGF2123-144 (from UniProt P15692 207-395) (ligand)” registered a Kd of 18 nM. This Kd and that of the substance before are within 1.5-fold of each other.
